# Test results: patent US20030202938A1 (UNIVERSITY OF MEDICINE AND DENTISTRY OF NEW JERSEY, published 2003)
# B1: Substance P (peptide, UniProt P20366 58-68, looked up)
# peptide: RPKPQQFFGLM
# notes: Substance P is an 11-residue peptide cut from it; 2 ug was added to the chips; also called SP
# Molecular target: T1, bovine serum albumin (bovine, UniProt P02769 25-607)
# T1 construct: also called BSA
# Test: SELDI-TOF ProteinChip, protein covalently bound to PS-1 chip, SP added
# Method: HGFIN-SP interaction was studied by pre-treating the PS1 chips with 50% acetonitrile for 3 min. After this, the chips were incubated for 45 min with the following: 2.5 μg HGFIN (experimental sample), anti-Id2, an unrelated IgG regarding its ability to complex with SP and was therefore treated as a negative control, rabbit anti-SP (positive control) or 20 ng fibronectin, fragment III-C (positive control). The arrays were blocked for 25 min with 1M ethanolamine and washed with PBS+0.5% Triton X (2×) and a final PBS wash step. After this the chips were washed with PBS+Triton-x, PBS, rinsed with 5 mM Hepes and then dried. CHCA was applied and the non-covalently bound SP was detected with the SELDI-Time of Flight Mass spectrometer as described for the profiling studies for HGFIN.
# Fibronectin has been reported to bind SP. Therefore, this property of fibronectin was used as a positive control for SP interaction on the SELDI system. […] Similar results were shown with another positive control: rabbit anti-SP (covalently bound) and SP (FIG. 4C, lower chromatogram). No peak was detected in two negative controls, which consisted of bovine serum albumin or an unrelated antibody (anti-Id2) covalently bound to the surface of PS-1.
# T1 sequence (P02769 25-607 limits assumed): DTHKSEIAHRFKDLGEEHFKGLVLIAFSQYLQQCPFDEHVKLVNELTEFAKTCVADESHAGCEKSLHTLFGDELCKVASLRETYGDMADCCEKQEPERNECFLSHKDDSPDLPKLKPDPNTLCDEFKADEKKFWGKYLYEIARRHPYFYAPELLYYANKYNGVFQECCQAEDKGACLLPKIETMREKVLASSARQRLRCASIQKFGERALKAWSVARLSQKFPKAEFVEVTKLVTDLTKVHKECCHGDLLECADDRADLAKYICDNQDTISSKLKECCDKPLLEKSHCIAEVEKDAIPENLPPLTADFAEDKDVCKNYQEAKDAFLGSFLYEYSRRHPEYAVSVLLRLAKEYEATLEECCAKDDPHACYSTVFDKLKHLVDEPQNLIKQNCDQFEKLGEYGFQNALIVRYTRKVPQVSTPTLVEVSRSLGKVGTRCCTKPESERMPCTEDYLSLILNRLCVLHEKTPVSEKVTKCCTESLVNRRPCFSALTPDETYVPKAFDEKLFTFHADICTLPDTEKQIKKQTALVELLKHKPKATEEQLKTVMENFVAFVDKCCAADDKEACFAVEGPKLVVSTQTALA
binder,measurement,value
B1,binding result,no binding
